Like-named read-outs stand apart in the source and are kept apart here.
How the values were obtained:
[1] = tested on: TALEN 101238c (Xanthomonas (engineered)?); assay: cell_activity; settings: paired with 101236, K562; SELEX preference improved
[2] = tested on: TALEN 101238d (Xanthomonas (engineered)?); assay: cell_activity; settings: paired with 101236, K562
[3] = tested on: TALEN 101238e (Xanthomonas (engineered)?); assay: cell_activity; settings: paired with 101236, K562; SELEX not interpretable
[4] = tested on: TALEN 101238 (Xanthomonas (engineered)?); assay: cell_activity; settings: paired with 101236, K562
[5] = tested on: TALEN 101238a (Xanthomonas (engineered)?); assay: cell_activity; settings: paired with 101236, K562; SELEX preference improved
[6] = tested on: TALEN 101238b (Xanthomonas (engineered)?); assay: cell_activity; settings: paired with 101236, K562; SELEX preference improved
[7] = tested on: TALE 101042-BfiI (Xanthomonas/Bacillus (engineered)?); assay: cell_activity; settings: paired with 101047-BfiI, K562
[8] = tested on: TALE 101043-BfiI (Xanthomonas/Bacillus (engineered)?); assay: cell_activity; settings: paired with 101047-BfiI, K562
[9] = tested on: TALE TL_CTTC RD-RG-MG-ND (Xanthomonas (engineered)?); settings: ELISA; site composed
[10] = tested on: TALE TL_CTTC RD-RG-RG-KD (Xanthomonas (engineered)?); settings: ELISA; site composed
[11] = tested on: TALE TL_CTTC RD-RG-KG-AD (Xanthomonas (engineered)?); settings: ELISA; site composed
[12] = tested on: TALEN 102109 (R*) (Xanthomonas (engineered)?); assay: cell_activity; settings: paired with 102204, K562
[13] = tested on: TALEN 3-1 (Xanthomonas (engineered)?); assay: cell_activity; settings: paired with 101041
[14] = tested on: TALEN 4-1 (Xanthomonas (engineered)?); assay: cell_activity; settings: paired with 101041
[15] = tested on: TALE 101047-BfiI (Xanthomonas/Bacillus (engineered)?); assay: cell_activity; settings: paired with 101043-BfiI, K562
[16] = tested on: TALEN 101047 (R) (Xanthomonas (engineered)?); assay: cell_activity; settings: paired with 101041, K562
[17] = tested on: TALEN Condition 3 lane 8 (Xanthomonas (engineered)?); assay: cell_activity; settings: paired with 101041
[18] = tested on: TALEN Condition 4 lane 64 (Xanthomonas (engineered)?); assay: cell_activity; settings: paired with 101041
[19] = tested on: TALEN 101664 (R551-C17-KKR) (Xanthomonas (engineered)?); assay: cell_activity; settings: paired with 101662, 12 bp gap, K562
[20] = tested on: TALE TL_TCAT QG-AD-HI-KG (Xanthomonas (engineered)?); settings: ELISA
[21] = tested on: TALE TL_TCAT AA-KD-KI-MG (Xanthomonas (engineered)?); settings: ELISA
[22] = tested on: TALE TL_TCAT canonical (Xanthomonas (engineered)?); settings: ELISA, AFU 204
[23] = tested on: TALE TL_TCAT QG-KD-KI-AA (Xanthomonas (engineered)?); settings: ELISA
[24] = tested on: TALEN 102204 (L*) (Xanthomonas (engineered)?); assay: cell_activity; settings: paired with 102109, K562
[25] = tested on: TALEN 1-1 (Xanthomonas (engineered)?); assay: cell_activity; settings: paired with 101047
[26] = tested on: TALEN 2-1 (Xanthomonas (engineered)?); assay: cell_activity; settings: paired with 101047
[27] = tested on: TALEN 101041 (L) (Xanthomonas (engineered)?); assay: cell_activity; settings: paired with 101047, K562
[28] = tested on: TALEN Condition 1 lane 40 (Xanthomonas (engineered)?); assay: cell_activity; settings: paired with 101047
[29] = tested on: TALEN Condition 2 lane 45 (Xanthomonas (engineered)?); assay: cell_activity; settings: paired with 101047
[30] = tested on: TALEN 102297 (L538NC-C17-ELD) (Xanthomonas (engineered)?); assay: cell_activity; settings: paired with 101664, 12 bp gap, K562
[31] = tested on: TALEN 101662 (L538-C17-ELD) (Xanthomonas (engineered)?); assay: cell_activity; settings: paired with 101664, 12 bp gap, K562
[32] = tested on: TALE 101048-BfiI (Xanthomonas/Bacillus (engineered)?); assay: cell_activity; settings: paired with 101043-BfiI, K562
[33] = tested on: CXA TALE KRD S11K (repeat 5) (Xanthomonas (engineered)?)
[34] = tested on: CXA TALE SAK (Xanthomonas (engineered)?)
[35] = tested on: CXA TALE KRI S11K (repeat 5) (Xanthomonas (engineered)?)
[36] = tested on: CXA TALE SNI (pos 11-13) (Xanthomonas (engineered)?)
[37] = tested on: CXA TALE NRI S11N (repeat 5) (Xanthomonas (engineered)?)
[38] = tested on: CXA TALE SNN (Xanthomonas (engineered)?)
[39] = tested on: CXA TALE NRD S11N (repeat 5) (Xanthomonas (engineered)?)
[40] = tested on: CXA TALE KKD S11K (repeat 5) (Xanthomonas (engineered)?)
[41] = tested on: CXA TALE KAK S11K (repeat 5) (Xanthomonas (engineered)?)
[42] = tested on: CXA TALE SRD (Xanthomonas (engineered)?)
[43] = tested on: CXA TALE SNG (Xanthomonas (engineered)?)
[44] = tested on: CXA TALE SHD (Xanthomonas (engineered)?)
[45] = tested on: CXA TALE SKD (Xanthomonas (engineered)?)
[46] = tested on: CXA TALE SRI (Xanthomonas (engineered)?)
[47] = tested on: TALE TR_ATAC HI-VA-CI-ND (Xanthomonas (engineered)?); settings: ELISA; site composed
[48] = tested on: TALE TR_ATAC CI-VA-HI-ND (Xanthomonas (engineered)?); settings: ELISA; site composed
[49] = tested on: TALE TR_ATAC KI-MG-HI-RD (Xanthomonas (engineered)?); settings: ELISA; site composed
[50] = tested on: TALE TR_ATTG HI-RG-MG-HN (Xanthomonas (engineered)?); settings: ELISA; site composed
[51] = tested on: TALE TR_ATTG CI-MG-KG-HN (Xanthomonas (engineered)?); settings: ELISA; site composed
[52] = tested on: TALE TR_ATTG CI-KG-QG-HN (Xanthomonas (engineered)?); settings: ELISA; site composed
[53] = tested on: TALE TR_CAGA ND-HI-HN-KI (Xanthomonas (engineered)?); settings: ELISA; site composed
[54] = tested on: TALE TR_CAGA KD-HI-FN-HI (Xanthomonas (engineered)?); settings: ELISA; site composed
[55] = tested on: TALE TR_CAGA AD-HI-GN-HI (Xanthomonas (engineered)?); settings: ELISA; site composed
[56] = tested on: TALE TR_CAGC canonical (Xanthomonas (engineered)?); settings: ELISA, AFU 649
[57] = tested on: TALE TR_CAGC ND-KI-FN-AD (Xanthomonas (engineered)?); settings: ELISA
[58] = tested on: TALE TR_CAGC RD-HI-HN-ND (Xanthomonas (engineered)?); settings: ELISA
[59] = tested on: TALE TR_CAGC RD-HI-GN-ND (Xanthomonas (engineered)?); settings: ELISA
[60] = tested on: TALE TR_CCTG AD-RD-HG-HN (Xanthomonas (engineered)?); settings: ELISA; site composed
[61] = tested on: TALE TR_CCTG ND-KD-HG-HN (Xanthomonas (engineered)?); settings: ELISA; site composed
[62] = tested on: TALE TR_CCTG canonical (Xanthomonas (engineered)?); settings: ELISA, AFU 1020; site composed
[63] = tested on: TALE TR_CCTG RD-ND-AA-HN (Xanthomonas (engineered)?); settings: ELISA; site composed
[64] = tested on: TALE TR_TACA RG-HI-RD-KI (Xanthomonas (engineered)?); settings: ELISA; full site composed from anchor + subsite
[65] = tested on: TALE TR_TACA canonical (Xanthomonas (engineered)?); settings: ELISA, AFU 779; site composed
[66] = tested on: TALE TR_TACA KG-KI-KD-CI (Xanthomonas (engineered)?); settings: ELISA; site composed
[67] = tested on: TALE TR_TACA VA-CI-ND-HI (Xanthomonas (engineered)?); settings: ELISA; full site composed from anchor + subsite

Work on PITX3 target of 101238 yielded an activity [1] of 44 % indels, an activity [2] of 43 % indels and an activity [3] of 22 % indels. The activity [4] was 34 % indels, the activity [5] was 54 % indels and the activity [6] was 50 % indels.
In the case of “TACACCTGCAGCTCT (double strand) [101042 half-site]”, the activity [7] is reported as 0.11 % indels.
“TACACCTGCAGCTCTCAT (double strand) [101043 half-site]” was tested, and the activity [8] was 0.75 % indels.
“TCTTCATCCT (double strand) [TL CTTC target]” showed a binding signal (fold vs canonical) [9] of 0.16, a binding signal (fold vs canonical) [10] of 13.8 and a binding signal (fold vs canonical) [11] of 8.22.
With “TCTTCCAGAATTGATACT (double strand) [CCR5 R557 half-site]” the activity [12] was 65.2 % indels, the activity [13] was 56.3 % NHEJ and the activity [14] was 59.5 % NHEJ. It also gave an activity [15] of 0.75 % indels, an activity [16] of 50.6 % indels and an activity [17] of 0 % NHEJ. For the same substance, the activity [18] was 0 % NHEJ.
Substance “TGATACTGACTGT (double strand) [CCR5 R551 half-site]” has an activity [19] of 59 % NHEJ.
With “TTCATATCCT (double strand) [TL TCAT target]” the binding signal (fold vs canonical) [20] was 2.26, the binding signal (fold vs canonical) [21] was 0.05 and the binding signal (fold vs canonical) [22] was 1. It also gave a binding signal (fold vs canonical) [23] of 2.34.
For “TTCATTACACCTGCAGCT (double strand) [CCR5 L538 half-site]”, the activity [24] was 65.2 % indels, the activity [25] was 36.6 % NHEJ and the activity [26] was 64.1 % NHEJ. For the same substance, the activity [27] was 50.6 % indels, the activity [28] was 0 % NHEJ and the activity [29] was 0 % NHEJ. It also gave an activity [30] of 56.2 % NHEJ and an activity [31] of 59 % NHEJ.
In the case of “TTCTTCCAGAATTGAT (double strand) [101048 half-site]”, the activity [32] is reported as 0.27 % indels.
Substance “TTGACAATCCT (double strand) [CAA target]” has a binding signal (normalized ELISA) [33] of 0.48, a binding signal (normalized ELISA) [34] of 0.01 and a binding signal (normalized ELISA) [35] of 0.74. The binding signal (normalized ELISA) ([36]; flanking RVDs inferred from anchors) was 0.96, the binding signal (normalized ELISA) [37] was 0 and the binding signal (normalized ELISA) [38] was 1.12. For the same substance, the binding signal (normalized ELISA) [39] was 0.07, the binding signal (normalized ELISA) [40] was 0.25 and the binding signal (normalized ELISA) [41] was 0.05. It also gave a binding signal (normalized ELISA) [42] of 0.26, a binding signal (normalized ELISA) [43] of 0.63 and a binding signal (normalized ELISA) [44] of 0.38. It also gave a binding signal (normalized ELISA) [45] of 0.14 and a binding signal (normalized ELISA) [46] of 0.51.
With “TTGACATACT (double strand) [TR ATAC target]” the binding signal (fold vs canonical) [47] was 1.36, the binding signal (fold vs canonical) [48] was 1.4 and the binding signal (fold vs canonical) [49] was 0.47.
Substance “TTGACATTGT (double strand) [TR ATTG target]” has a binding signal (fold vs canonical) [50] of 0, a binding signal (fold vs canonical) [51] of 1.22 and a binding signal (fold vs canonical) [52] of 1.12.
In the case of “TTGACCAGAT (double strand) [TR CAGA target]”, the binding signal (fold vs canonical) [53] is reported as 1.28, the binding signal (fold vs canonical) [54] is reported as 1.3 and the binding signal (fold vs canonical) [55] is reported as 0.04.
For “TTGACCAGCT (double strand) [TR CAGC target]”, the binding signal (fold vs canonical) [56] was 1, the binding signal (fold vs canonical) [57] was 0 and the binding signal (fold vs canonical) [58] was 1.52. For the same substance, the binding signal (fold vs canonical) [59] was 0.4.
“TTGACCATCCT (double strand) [CCA target]” gave a binding signal (normalized ELISA) [33] of 0.85, a binding signal (normalized ELISA) [35] of 0.28 and a binding signal (normalized ELISA) [36] of 0.06. The binding signal (normalized ELISA) [38] was 0.01, the binding signal (normalized ELISA) [39] was 0.53 and the binding signal (normalized ELISA) [40] was 0.64. For the same substance, the binding signal (normalized ELISA) [42] was 0.91, the binding signal (normalized ELISA) [43] was 0.15 and the binding signal (normalized ELISA) [44] was 1.29. It also gave a binding signal (normalized ELISA) [45] of 0.5 and a binding signal (normalized ELISA) [46] of 0.04.
In the case of “TTGACCCTGT (double strand) [TR CCTG target]”, the binding signal (fold vs canonical) [60] is reported as 1.3, the binding signal (fold vs canonical) [61] is reported as 1.07 and the binding signal (fold vs canonical) [62] is reported as 1. For the same substance, the binding signal (fold vs canonical) [63] was 0.02.
In the case of “TTGACGATCCT (double strand) [CGA target]”, the binding signal (normalized ELISA) [34] is reported as 0.21, the binding signal (normalized ELISA) [36] is reported as 0.01 and the binding signal (normalized ELISA) [38] is reported as 0.76. The binding signal (normalized ELISA) [41] was 0.28, the binding signal (normalized ELISA) [43] was 0.11 and the binding signal (normalized ELISA) [44] was 0.01.
Work on “TTGACTACAT (double strand) [TR TACA target]” yielded a binding signal (fold vs canonical) [64] of 1.62, a binding signal (fold vs canonical) [65] of 1 and a binding signal (fold vs canonical) [66] of 0.48. For the same substance, the binding signal (fold vs canonical) [67] was 1.57.
For “TTGACTATCCT (double strand) [CTA target]”, the binding signal (normalized ELISA) [36] was 0.02, the binding signal (normalized ELISA) [38] was 0.03 and the binding signal (normalized ELISA) [43] was 0.99. The binding signal (normalized ELISA) [44] was 0.12.

— US20130196373
